Assay results taken from US20240327848.

These sequences were tested against human serum albumin (HSA) (Homo sapiens) (UniProt P02768) (assay: ELONA). Details: Nap-dU at all positions marked 6 (n); bead-based ELISA, buffer SB18 (5 mM MgCl2), 37 C.

| Sequence | Kd |
| --- | --- |
| CAGGTCGAGCTGTACGCGTGTGTGACCTG [AL006] | 19 nM |
| CTCTCCCAGGTCGAGCTGTACGCGTGTGTGACCTG [AL003] | 2.24 nM |
| CTCTCCCAGGTCGAGCTGTACGCGTGTGTGACCTGACGTG [AL002] | 20.7 nM |
| TCCCAGGTCGAGCTGTACGCGTGTGTGACC [AL005] | 14.7 nM |
